In this test the target is free UbcH8 (Ube2L6), GST tag removed (human). Briefly: SAXS.

As to “free UbcH8 (Ube2L6), GST tag removed (enzyme)”, the stoichiometry N (commonly the number of molecules, sites or subunits per partner or assembly) was 2.
